In patent publication US9949489B2, “Methods for control of hemipteran insect stylet sheath structure formation” (The United States of America, as Represented by the …, priority 2015, dated 2018):

Assays:
[1] = system: D. citri stylet sheaths (ACP SSs); assay: Degradation of preformed, solidified stylet sheaths by enzymes (MFC membrane or slide incubation); parameters: species or system Diaphorina citri; key to Sheath Degradation: −: No effect apparent; +/−: inconclusive; +: apparent slight effect; ++: increased apparent effect; +++: high effect; ++++: very high effect; +++++: complete degradation of sheaths or inhibition of sheath synthesis; settings: for Sheath Degradation: enzyme concentration, pH and temperature per Table 4 (cellulase 1:25, pH 6.0, 60° C.); for Effect on preformed D. citri stylet sheaths: cellulase 1:25, pH 6.0, 60° C., 72 hours, Flavourzyme about 30 minutes, proteinase K 55° C. overnight
Experimental: In order to test cellulase's effect on preformed ACP SSs, formed, solidified stylet sheaths were harvested directly from the surface of an MFC membrane (in these experiments either plastic wrap or parafilm was used) as described herein and in Morgan et al. 2013, supra. Approximately 100 psyllids were placed into an MFC for about 24 hours. The MFCs consisted of D. citri caged individually and/or in groups within 100 mm×15 mm plastic Petri dishes. A single kitchen plastic wrap layer was stretched across the top of each Petri dish to seal the Petri dish from insect escape and to provide a stylet penetrable surface for insect probing.
Several MFCs (the Petri dishes covered with kitchen plastic wrap or parafilm and containing D. citri) were placed into clear Pyrex® baking dishes with the membrane (kitchen plastic wrap or parafilm) side up, and the Pyrex® baking dish is covered with a single layer of clear kitchen plastic wrap to prevent external contaminant interactions with the membrane surface during incubation. MFCs were incubated at a temperature of about 25° C., relative humidity of about 75%, and a light:dark cycle of about 14:1. Collection of partial stylet sheaths, shaft/branching portions without the flange, was performed using deionized water applied directly to the sheath surface to wash the surface of the MFC, and then the application of approximately 100 μl of an approximately 50 mM sodium phosphate buffer at a pH of approximately 6.0 for direct harvest of partial sheaths from the membrane surface using a bent glass rod to scour the plastic wrap surface to dislodge the stylet sheaths. The sodium phosphate buffer containing dislodged sheath shafts was removed using a pipette and placed in a microcentrifuge tube (1.5 ml tube), and cellulase (Sigma #C2605, Sigma Aldrich, St. Louis, Mo.) was added by ratio at approximately 1 part cellulase to 25 parts sodium phosphate buffer (approximately 1:25 ratio). Approximately 15 μl was then transferred to a pre-cleaned glass slide (Fisher, #12-550-19, Thermo Fisher Scientific, Inc., Waltham Mass.), covered with a premium cover slip, and edges sealed using clear nail polish CG, 3INI NL #Q004 SHN ON (CoverGirl, Hunt Valley, Md.) to keep the buffer from evaporating during incubation. This slide was then placed in an approximately 60° C. incubator of about 72 hours and observed at about 24 hour intervals.
FIGS. 3A, 3B, and 3C and FIGS. 3D, 3E, and 3F are light micrograph pictures of repeated experiments representing separate treatment of two salivary sheaths. FIG. 3A and FIG. 3D are separate salivary sheaths prior to the addition of cellulase. FIG. 3B and FIG. 3E are the same sheaths, respectively, after 72 hours incubation with cellulase. FIG. 3C and FIG. 3F are the same sheaths, respectively, when gentle pressure was applied to the coverslip over the sheaths that had been incubated with cellulase for 72 hours. […] Because of the observed result with cellulase, sheath degradation experiments as described above for cellulase were performed using a number of polysaccharide-degrading enzymes and proteases. […] Both carbohydrate-degrading enzymes and proteases were effective at degrading the sheaths.
While not wishing to be bound to any particular hypothesis, based on the results of Examples 1, 2, and 3, it is hypothesized that the structure of the ACP SSs could include protein cross-links that are catalyzed by an enzyme with an oxidative role, an enzyme at least somewhat similar to a lysyl oxidase. To determine if a protein is associated with the identified glucan, proteases were tested in experiments similar to Examples 1 and 2 above. The following proteases were added individually in separate experiments (described infra) to membranes on which D. citri adults were previously allowed to first form sheaths in the absence of proteases: Flavourzyme® (a protease cocktail), carboxypeptidase W, chymopapain, bromelain, papain, ficin, licheninase, laminarinase, and β-(1→3)-D-glucanase. […]

[2] = system: D. citri; assay: Liquid ACP diet sandwich feeding assay (MFC): inhibition of de novo stylet sheath formation; type: in vivo, Diaphorina citri; settings: about 24 h; cellulase approx 1 unit/μl; BAPN 100 mM; EDTA approx 2 mM; proteases per Table 5
Experimental: (§1) The next step was to determine if addition of cellulase to the diet of D. citri would interfere with stylet sheath formation. A D. citri diet is prepared as described by Hall, David et al., “Research toward an artificial diet for adult Asian citrus psyllid,” Annals of the Entomological Society of America 103.4:611-617 (2010). Approximately 25 D. citri were collected into polystyrene Cellstar 35 mm×10 mm dishes (Griener Bio-One, Monroe, N.C.) that were then sealed using a single layer of Parafilm® M (Pechiney Plastic Packaging Company, Chicago, Ill.). Approximately 99 μl of liquid ACP diet (e.g., diet lacking the solidifying agar component, see Hall, et. al., 2010, supra) was mixed with approximately 1 μl of cellulase (Sigma Aldrich, St. Louis, Mo.) and mixed. […]
(§2) Because many biomolecule polymerizing enzymes require divalent cations as cofactors, the effect of ethylenediaminetetraacetic acid (EDTA), a chelator of divalent cations, on ACP SS formation was tested by adding EDTA to the previously described liquid ACP diet (see Hall et al., 2010, supra). […] Uncommon bands between the liquid ACP diet containing EDTA and liquid ACP diet without EDTA (negative control) lanes were cut out and analyzed by Orbitrap (Thermo Scientific, Waltham, Mass.) protein analysis, according to manufacturer's protocol. […]

[3] = system: D. citri; assay: as above; type: in vivo, Diaphorina citri; parameters: key: −: No effect apparent; +/−: inconclusive; +: apparent slight effect; ++: increased apparent effect; +++: high effect; ++++: very high effect; +++++: complete degradation of sheaths or inhibition of sheath synthesis; settings: enzyme in liquid ACP diet, about 24 h, 25° C., enzyme amounts and pH per Table 5 (cellulase approx 1 unit/μl)
Experimental: as §1, §2

B1: Papain from papaya latex: Cysteine peptidase; Sigma #P5306 (protein, UniProt P00784 134-345, looked up)
Papain: IPEYVDWRQKGAVTPVKNQGSCGSCWAFSAVVTIEGIIKIRTGNLNEYSEQELLDCDRRSYGCNGGYPWSALQLVAQYGIHYRNTYPYEGVQRYCRSREKGPYAAKTDGVRQVQPYNEGALLYSIANQPVSVVLEAAGKDFQLYRGGIFVGPCGNKVDHAVAAVGYGPNYILIKNSWGTGWGENGYIRIKRGTGNSYGVCGLYTSSFYPVKN
Sheath Degradation ([1]; D. citri preformed sheaths): ++ | Effect on D. citri stylet sheath formation in liquid ACP diet [2]: capable of inhibiting the formation of ACP SSs | Inhibition of Sheath Formation [3]: ++++

B2: Trypsin from bovine pancreas: Serine peptidase; Sigma #T8658 (protein, UniProt P00760 24-246, looked up)
Serine protease 1: IVGGYTCGANTVPYQVSLNSGYHFCGGSLINSQWVVSAAHCYKSGIQVRLGEDNINVVEGNEQFISASKSIVHPSYNSNTLNNDIMLIKLKSAASLNSRVASISLPTSCASAGTQCLISGWGNTKSSGTSYPDVLKCLKAPILSDSSCKSAYPGQITSNMFCAGYLEGGKDSCQGDSGGPVVCSGKLQGIVSWGSGCAQKNKPGVYTKVCNYVSWIKQTIASN
Sheath Degradation ([1]; D. citri preformed sheaths): − | Effect on D. citri stylet sheath formation in liquid ACP diet [2]: did not appear to have an inhibitory effect | Inhibition of Sheath Formation [3]: −

B3: Proteinase K from Tritirachium album: Broad protease specificity; Fischer #BP1700-100 (protein, UniProt P06873 106-384, looked up)
Proteinase K: AAQTNAPWGLARISSTSPGTSTYYYDESAGQGSCVYVIDTGIEASHPEFEGRAQMVKTYYYSSRDGNGHGTHCAGTVGSRTYGVAKKTQLFGVKVLDDNGSGQYSTIIAGMDFVASDKNNRNCPKGVVASLSLGGGYSSSVNSAAARLQSSGVMVAVAAGNNNADARNYSPASEPSVCTVGASDRYDRRSSFSNYGSVLDIFGPGTSILSTWIGGSTRSISGTSMATPHVAGLAAYLMTLGKTTAASACRYIADTANKGDLSNIPFGTVNLLAYNNYQA
Sheath Degradation ([1]; D. citri preformed sheaths): +++++ | Effect on preformed D. citri stylet sheaths [1]: completely dissolves

B4: Amyloglucosidase from Aspergillus niger: Hydrolyses α-D-(1-4), α-D-(1-6) and α-D-(1-3) glucosidic bonds of oligosaccharides; Sigma #A7420 (protein, UniProt P69328 25-640, looked up)
Glucoamylase: ATLDSWLSNEATVARTAILNNIGADGAWVSGADSGIVVASPSTDNPDYFYTWTRDSGLVLKTLVDLFRNGDTSLLSTIENYISAQAIVQGISNPSGDLSSGAGLGEPKFNVDETAYTGSWGRPQRDGPALRATAMIGFGQWLLDNGYTSTATDIVWPLVRNDLSYVAQYWNQTGYDLWEEVNGSSFFTIAVQHRALVEGSAFATAVGSSCSWCDSQAPEILCYLQSFWTGSFILANFDSSRSGKDANTLLGSIHTFDPEAACDDSTFQPCSPRALANHKEVVDSFRSIYTLNDGLSDSEAVAVGRYPEDTYYNGNPWFLCTLAAAEQLYDALYQWDKQGSLEVTDVSLDFFKALYSDAATGTYSSSSSTYSSIVDAVKTFADGFVSIVETHAASNGSMSEQYDKSDGEQLSARDLTWSYAALLTANNRRNSVVPASWGETSASSVPGTCAATSAIGTYSSVTVTSWPSIVATGGTTTTATPTGSGSVTSTSKTTATASKTSTSTSSTSCTTPTAVAVTFDLTATTTYGENIYLVGSISQLGDWETSDGIALSADKYTSSDPLWYVTVTLPAGESFEYKFIRIESDDSVEWESDPNREYTVPQACGTSTATVTDTWR
Sheath Degradation, remark in words ([1]; D. citri preformed sheaths): Sheaths swell | Sheath Degradation ([1]; D. citri preformed sheaths): ++ | Effect on preformed D. citri stylet sheaths [1]: adversely impact stylet sheath integrity
